By IC50 is commonly meant the concentration needed to halve the response being measured. In general, EC50 refers to the concentration giving half of the maximal effect. Read a low EC50 as greater potency. By Kd is commonly meant the constant that tells how readily two partners part at equilibrium. High values mean a looser complex, low ones a tighter complex.

Consider 8 molecules from patent US20260317429 (published 2026).

Test [1] addresses T1, FGFR2IIIb-Fc (human, UniProt P21802). Briefly: competition ELISA, FGF10.
Target sequence in this assay (P21802 22-377): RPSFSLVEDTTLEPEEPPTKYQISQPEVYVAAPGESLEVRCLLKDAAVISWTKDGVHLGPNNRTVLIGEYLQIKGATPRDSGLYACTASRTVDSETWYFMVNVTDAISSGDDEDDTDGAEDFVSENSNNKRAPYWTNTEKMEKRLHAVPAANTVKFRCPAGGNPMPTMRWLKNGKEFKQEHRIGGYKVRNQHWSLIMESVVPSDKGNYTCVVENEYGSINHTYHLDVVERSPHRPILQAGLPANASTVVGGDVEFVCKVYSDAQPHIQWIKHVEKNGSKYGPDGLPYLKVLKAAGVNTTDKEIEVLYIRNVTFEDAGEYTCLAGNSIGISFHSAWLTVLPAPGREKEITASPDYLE
For test [2], the target named is T2, FGFR2IIIb on cells (human, UniProt P21802). Nature of the test: FACS, CHO-FGFR2IIIb. Background: In flow cytometry, cells or beads pass a laser one at a time.
Target sequence in this assay (P21802 22-377): as above
Test [3] addresses T2, FGFR2IIIb on cells. Nature of the test: FACS, SNU-16.
Target sequence in this assay (P21802 22-377): as above
Test [4] addresses T3, FGFR2IIIb-his (ECD) (human).
T3 chain: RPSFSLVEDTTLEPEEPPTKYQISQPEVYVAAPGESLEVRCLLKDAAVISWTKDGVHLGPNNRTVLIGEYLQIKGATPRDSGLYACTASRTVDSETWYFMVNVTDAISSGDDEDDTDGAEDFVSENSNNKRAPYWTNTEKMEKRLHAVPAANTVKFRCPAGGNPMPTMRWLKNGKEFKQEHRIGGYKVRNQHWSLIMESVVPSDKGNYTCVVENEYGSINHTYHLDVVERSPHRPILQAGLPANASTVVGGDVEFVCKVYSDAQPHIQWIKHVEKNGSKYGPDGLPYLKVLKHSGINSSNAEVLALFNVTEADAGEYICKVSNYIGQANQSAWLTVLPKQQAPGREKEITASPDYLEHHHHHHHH
Nature of the test: SPR. Background: In SPR one partner is held on a chip, and binding of the other changes the refractive index at the surface.

The target of test [5] is T1, FGFR2IIIb-Fc. Briefly: competition ELISA, FGF1. (In general: ELISA stands for enzyme-linked immunosorbent assay.)
Target sequence in this assay (P21802 22-377): as the sequence (P21802 22-377) above
Test [6] deals with T3, FGFR2IIIb-his (ECD). Briefly: ELISA.
Test [7] concerns the target T1, FGFR2IIIb-Fc. Nature of the test: competition ELISA, FGF10. The source holds these as a separate data set.
For test [8], the target named is T1, FGFR2IIIb-Fc. Nature of the test: competition ELISA, FGF1. This is another data set of the same source.
Test [9] deals with T1, FGFR2IIIb-Fc. Briefly: competition ELISA, FGF7.
The target of test [10] is T4, mouse FGFR2IIIb (mouse, UniProt P21803).
T4 chain: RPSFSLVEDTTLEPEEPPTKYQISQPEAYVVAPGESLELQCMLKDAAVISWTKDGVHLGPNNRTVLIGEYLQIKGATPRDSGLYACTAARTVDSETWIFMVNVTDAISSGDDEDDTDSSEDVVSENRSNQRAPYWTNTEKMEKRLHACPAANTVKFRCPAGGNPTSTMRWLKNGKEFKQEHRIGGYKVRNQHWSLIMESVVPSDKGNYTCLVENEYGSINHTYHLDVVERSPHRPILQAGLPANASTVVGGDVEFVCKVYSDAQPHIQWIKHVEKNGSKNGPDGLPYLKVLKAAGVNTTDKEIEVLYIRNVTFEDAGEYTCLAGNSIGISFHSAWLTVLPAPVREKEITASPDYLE
Briefly: ELISA.

In test [11] the target is T1, FGFR2IIIb-Fc. Briefly: competition ELISA, FGF10. This is another data set of the same source.
Test [12] has as its target T1, FGFR2IIIb-Fc. Nature of the test: competition ELISA, FGF7. This is another data set of the same source.
Test [13] addresses T1, FGFR2IIIb-Fc. Briefly: competition ELISA, FGF1. The source holds these as a separate data set.
Test [14] concerns the target T3, FGFR2IIIb-his (ECD). Briefly: ELISA.
The target of test [15] is T2, FGFR2IIIb on cells. Briefly: FACS, CHO-FGFR2IIIb. The source holds these as a separate data set.
For test [16], the target named is T2, FGFR2IIIb on cells. Nature of the test: FACS, SNU-16. The source holds these as a separate data set.
In test [17] the target is FGFR2IIIc-his (ECD) (human). Nature of the test: ELISA.
In test [18] the target is T1, FGFR2IIIb-Fc. Nature of the test: competition ELISA, FGF7. The source holds these as a separate data set.
For test [19], the target named is T1, FGFR2IIIb-Fc. Briefly: competition ELISA, FGF10. The source holds these as a separate data set.
Test [20] concerns the target T3, FGFR2IIIb-his (ECD). Nature of the test: ELISA.

Substitutions are numbered along the chain they refer to. Where two headings read alike, the source gives them in different places.

B1: III-11 (antibody, V domains shown)
VH: QVQLVQSGAEVKKPGSSVKVSCKASGYTFAIYNMHWVRQAPGQGLEWIGAIYPDNGDTFYNQKFKGKATLTADKSTSTAYMELSSLRSEDTAVYYCARGDFGYWGQGTLVTVSS
VL: DIVMTQSPSSLSASVGDRVTITCKASQDVNIDPAWYQQKPGKAPKLLIYLASYRYTGVPSRFSGSGSGTDFTFTISSLQPEDFATYYCQQHYSTPYTFGQGTKLEIK
For B1, the IC50 in test [1] was found to be 0.976 µg/mL; in test [5], 1.18 µg/mL. Besides, the EC50 in [2] is 0.19 µg/mL; in [3] it was 0.319 µg/mL; in [6], 0.051 µg/mL. The molecule also yielded a Kd in test [4] of 1.24 nM.

B2: III-13 (antibody, V domains shown)
VH: B1 VH with F59S
VL: B1 VL with P33V, H91T
With B2, the IC50 in test [1] is 0.905 µg/mL; in test [5], 0.966 µg/mL. In [4], this molecule had a Kd of 1.23 nM.

B3: III-10 (antibody, V domains shown)
VH: B1 VH with I31N, D54G, F59S
VL: B1 VL with P33V, L50S
Take B3: the EC50 was 0.257 µg/mL in test [2], 0.471 µg/mL in test [3], 0.052 µg/mL in test [6] and 0.127 µg/mL in test [10]. Further, the IC50 worked out at 0.724 µg/mL in [7], 0.581 µg/mL in test [8] and 0.565 µg/mL in test [9]. Binding in test [4] was characterised by a dissociation constant (Kd) of 68.1 nM.

B4: III-14 (antibody, V domains shown)
VH: B1 VH with D54G
VL: B1 VL with P33V, H91T
As to B4, the IC50 in test [1] was determined as 0.937 µg/mL; in test [5] it was 0.974 µg/mL. Moreover, the EC50 came to 0.263 µg/mL in test [2], 0.526 µg/mL in test [3] and 0.058 µg/mL in test [6]. Further, in test [4], binding was put at a Kd of 1.26 nM.

B5: III-15 (antibody, V domains shown)
VH: B1 VH
VL: B1 VL with P33V, H91T
In the case of B5, the results for the IC50 in test [1] and in [5] were 0.805 µg/mL and 0.941 µg/mL, respectively. The EC50 was 0.26 µg/mL in test [2], 0.378 µg/mL in [3] and 0.042 µg/mL in test [6]. This molecule also showed a Kd in test [4] of 1.04 nM.

B6: III-12 (antibody, V domains shown)
VH: B1 VH with I31N, F59S
VL: B1 VL with P33V, H91T
With B6, the IC50 in test [1] was found to be 0.999 µg/mL; in test [5] it was 1.08 µg/mL. Also, the dissociation constant (Kd) in test [4] stood at 1.32 nM.

B7: III-0 (antibody, V domains shown)
VH: QVQLQQPGAELVRPGASVKMSCKASGYTFANYNMHWVKQTPRQGLEWIGAIYPGNGDTSYNQKFKGKATLTADKSSSTAYMQLSSLTSEDSAVYYCARGDFGYWGQGTTLTVSS
VL: DIVMTQSHKFMSTSVGDRVTITCKASQDVNIDVAWYQQKPGQSPKLLIYSASYRYTGVPDRFTGSGSGTDFTFTISSVQAEDLAVYYCQQHYSTPYTFGGGTKLEIK
B7: the EC50 in [2] came out at 0.342 µg/mL; in test [3], 0.74 µg/mL; in test [14], 0.0404 µg/mL; in test [15], 1.01 µg/mL; in [6], 0.048 µg/mL; in test [16], 1.64 µg/mL. The IC50 in test [7] was 0.745 µg/mL; in test [11], 0.84 µg/mL; in test [12] it was 0.694 µg/mL; in test [8], 0.692 µg/mL; in test [9] it was 0.603 µg/mL; in test [13], 0.904 µg/mL. Further, the Kd in [4] is 81.3 nM.

B8: 27E9A11 (antibody, V domains shown)
VH: B7 VH
VL: B7 VL
As to B8, in test [17], the binding result is reported as “no binding”. For the same molecule, the results for the IC50 in test [18] and in [19] were 0.417 µg/mL and 0.545 µg/mL, respectively. Besides, the EC50 in [20] came to 0.05 µg/mL.
